Source: PMC2139951

Key:
[1] = biological target: Ran (recombinant, GTP form) (UniProt P62826)
[2] = biological target: Ran (recombinant, GTP form) (UniProt P62826); experiment: inhibition of GAP-induced GTP hydrolysis on Ran

Row | offrate [1] [h] | Kd [2] [µM] | Substance
1 | 2 | 0.025 | recombinant Xenopus RanBP7 with COOH-terminal his-tag (natural protein)
2 | – | 0.0008 | recombinant importin-β (from UniProt Q14974 1-876) (natural protein; other documents disagree on this pair)
